From patent publication US11994512B2, “Single-cell genomic methods to generate ex vivo cell systems that recapitulate in vivo biology with improved fidelity” (Massachusetts Institute of Technology, priority 2018, dated 2024)

B1: Q8VEE1 (protein, UniProt Q8VEE1 1-365, looked up)
chain: MAKVAKDLNPGVQKMSLGQQQSARGVACLRCKGMCSGFEPHSWRKICKSCKCSQEEHCLSSDLDDDRKIGRLLMDSKYATLTARVKGGDGIRIYKRNRMIMTNPIATGKDPTFDTITYEWAPPGVTQKLGLQYMELIPKERQPVTGTEGALYRRRQLMHQLPIYDQDPSRCRGLVENELKAMEEFVKHYKSEALGVGEVALPGQGGLPKEENKTQEKPEGTETTAPTTNGSLGDPSKEVEYVCELCKGAAPVDSPVVYADRAGYSKQWHPTCFQCIKCSEPLVDLIYFWKDGAPWCGRHYCESVRPRCSGCDEIIFSEDYQRVEDLAWHRKHFICEGCEQLLSGRAYIVTKGQLLCPTCSKSKRS
modifications: full-length
B2: Q8VCI0 (protein, UniProt Q8VCI0 1-550, looked up)
chain: MCHRSPGRSLRPPSPLLLLLPLLLQPPWAAGAASQSDPTGVHCATAYWSPESKKVEIKTVLDKNGDAYGYYNDSIKTTGWGILEIRAGYGSQVLSNEIIMFLAGYLEGYLTALHMYDHFTNLYPQLIKNPSIVKKVQDFMEKQEMWTRQNIKAQKDDPFWRHTGYVVTQLDGLYLGAQKRASEEKIKPMTMFQIQFLNAVGDLLDLIPSLSPTKSSSMMKFKIWEMGHCSALIKVLPGFENIYFAHSSWYTYAAMLRIYKHWDFNIKDKYTLSKRLSFSSYPGFLESLDDFYILSSGLILLQTTNSVYNKTLLKQVVPKTLLAWQRVRVANMMAEGGKEWAQIFSKHNSGTYNNQYMVLDLKKVTINRSLDKGTLYIVEQIPTYVEYSDQTNVLRKGYWASYNIPFHKTIYNWSGYPLLVHKLGLDYSYDLAPRAKIFRRDQGNVTDMASMKYIMRYNNYKEDPYSKGDPCSTICCREDLNGASPSPGGCYDTKVADIFLASQYKAYAISGPTVQDGLPPFNWNRFNETLHRGMPEVFDFNFVTMKPILS
modifications: full-length
B3: Q8VCT4 (protein, UniProt Q8VCT4 1-565, looked up)
chain: MGLYPLIWLSLAACTAWGYPSSPPVVNTVKGKVLGKYVNLEGFTQPVAVFLGVPFAKPPLGSLRFAPPQPAEPWSFVKNTTSYPPMCSQDAVGGQVLSELFTNRKENIPLQFSEDCLYLNIYTPADLTKNSRLPVMVWIHGGGLVVGGASTYDGLALSAHENVVVVTIQYRLGIWGFFSTGDEHSRGNWGHLDQVAALRWVQDNIANFGGNPGSVTIFGESAGGFSVSVLVLSPLAKNLFHRAISESGVSLTAALITTDVKPIAGLVATLSGCKTTTSAVMVHCLRQKTEDELLETSLKLNLFKLDLLGNPKESYPFLPTVIDGVVLPKAPEEILAEKSFSTVPYIVGINKQEFGWIIPTLMGYPLAEGKLDQKTANSLLWKSYPTLKISENMIPVVAEKYLGGTDDLTKKKDLFQDLMADVVFGVPSVIVSRSHRDAGASTYMYEFEYRPSFVSAMRPKAVIGDHGDEIFSVFGSPFLKDGASEEETNLSKMVMKFWANFARNGNPNGGGLPHWPEYDQKEGYLKIGASTQAAQRLKDKEVSFWAELRAKESAQRPSHREHVEL
modifications: full-length
B4: Q8WUR0 (protein, UniProt Q8WUR0 1-141, looked up)
chain: MPIMVDDIMRLLCSISQERKMKAAVKHSGKGAMVAGAMAFVGGLVGGPPGIAVGGTVGGLLGAWMTSGQFKPVPQILMELPPAEQRKLVNEAMAIIGNLDWTDAVQLTALVMSNQAMQQRLLAMLTTYVTKELQAEIRYED
modifications: full-length
B5: Q91WU0 (protein, UniProt Q91WU0 1-561, looked up)
chain: MFLSTLFLVSLATCVICGNPSSPPVVDTAHGKVLGKHVNVEGFSQPVAVFLGIPFAKPPLGSLRFAPPQPAEPWSSVKNATTYPPMCSQDAARGQAVNDLITNRKEKIHLEFSEDCLYLNIYTPADFSKNSRLPVMVWIHGGGLKLGGASSFDGRALSAYENVVVVAIQYRLSIWGFFSTGDEHSRGNWGHLDQVAALHWVQDNIANFGGDPGSVTIFGESAGGYSVSILILSPLSKNLFHRAISESGVAFIPGMFTKDVRPITEQIAVTAGCKTTTSAVIVHCMRQKTEEELLEIMHKLNLYKLSLQGDTKNSDQFVTSVLDGVVLPKDPKEILAEKNFNTVPYIVGINKQECGWLLPTMTGFLPADVKLDKKKAIALLEQFASMTGIPEDIIPVAVEKYTKGSDDPDQIREGVLDAMGDVAFGVPSVIVSRGHRDTGAPTYMYEYQYYPSFSSPQRPKNVVGDHADDVYSVFGAPILREGASEEEINLSKMVMKFWANFARNGNPNGKGLPHWPKYDQKEGYLHIGGTTQQAQRLKEEEVTFWTQSLAKKQPQPYHNEL
modifications: full-length
B6: Q8VHC3 (protein, UniProt Q8VHC3 1-145, looked up)
chain: MSILLSPPSLLLLLAALVAPATSTTNYRPDWNRLRGLARGRVETCGGUQLNRLKEVKAFVTEDIQLYHNLVMKHLPGADPELVLLSRNYQELERIPLSQMTRDEINALVQELGFYRKSAPEAQVPPEYLWAPAKPPEEASEHDDL
modifications: full-length
B7: Q8R550 (protein, UniProt Q8R550 1-709, looked up)
chain: MVEAIVEFDYQAQHDDELTISVGEVITNIRKEDGGWWEGQINGRRGLFPDNFVREIKKDMKKDLLSNKAPEKPMHDVSSGNALLSSETILRTNKRGERRRRRCQVAFSYLPQNDDELELKVGDIIEVVGEVEEGWWEGVLNGKTGMFPSNFIKELSGESDELGISQDEQLSKSRPEGFLPASLLPFPAHGAKGKTTFEGTILYRAAPGKTEGHRRYYSLRETTGSESDGGDSSSTKSEGANGTMATAAIQPKKVKGVGFGDIFKDKPIKLRPRSIEVENDFLPVEKTIGKKLPPATSTPDPSKTEMDSRTKTKDYCKVIFPYEAQNDDELTIKEGDIVTLINKDCIDVGWWEGELNGRRGVFPDNFVKLLPSDFDKEGNRPKKPPPPSAPVVKQGAGTTERKHEIKKIPPERPETLPNRTEEKERPEREPKLDLQKPSVPAIPPKKPRPPKTNSLNRPGALPPRRPERPVGPLTHTRGDSPKIDLAGSALSGILDKDLSDRSNDIDLEGFDSVISSTEKLSHPTTSRPKATGRRPPSQSLTSSSLSSPDIFDSPSPEEDKEEHISLAHRGIDVSKKTSKTVTISQVSDNKTSLPPKPGTMAAASSGPASLSSVASSPMSSSLGTAGQRASSPSLFSTEGKPKMEPAVSSQAAIEELKMQVRELRTIIETMKDQQKREIKQLLSELDEEKKIRLRLQMEVNDIKKALQSK
modifications: full-length
B8: Q8VE33 (protein, UniProt Q8VE33 1-370, looked up)
chain: MATPNNLTPTNCSWWPISALESDAAKPVETPDAPEASSPAHWPKESLVLYHWTQSFSSQKRLQVRLVIAEKGLACEERDVSLPQSEHKEPWFMRLNLGEEVPVIIHRDNIISDYDQIIDYVERTFTGEHVVALMPEAGSPQHARVLQYRELLDALPMDAYTHGCILHPELTTDSMIPKYATAEIRRHLANATTDLMKLDHEEEPQLSEPYLSKQKKLMAKILEHDDVSYLKKILGELAMVLDQIEAELEKRKLENEGQTCELWLCGCAFTLADVLLGATLHRLKFLGLSKKYWEDGSRPNLQSFFERVQRRFAFRKVLGDIHTTLLSAVIPNAFRLVKRKPPSFFGASFLMGSLGGMGYFAYWYLKKKYI
modifications: full-length
B9: Q8VI93 (protein, UniProt Q8VI93 1-1138, looked up)
chain: MDLFHTPAGALDKLVAHNLHPAPEFTAAVRGALGSLNITLQQHRARGSQRPRVIRIAKGGAYARGTALRGGTDVELVIFLDCFQSFGDQKTCHSETLGAMRMLLESWGGHPGPGLTFEFSQSKASRILQFRLASADGEHWIDVSLVPAFDVLGQPRSGVKPTPNVYSSLLSSHCQAGEYSACFTEPRKNFVNTRPAKLKNLILLVKHWYHQVQTRAVRATLPPSYALELLTIFAWEQGCGKDSFSLAQGLRTVLALIQHSKYLCIFWTENYGFEDPAVGEFLRRQLKRPRPVILDPADPTWDVGNGTAWRWDVLAQEAESSFSQQCFKQASGVLVQPWEGPGLPRAGILDLGHPIYQGPNQALEDNKGHLAVQSKERSQKPSNSAPGFPEAATKIPAMPNPSANKTRKIRKKAAHPKTVQEAALDSISSHVRITQSTASSHMPPDRSSISTAGSRMSPDLSQIPSKDLDCFIQDHLRPSPQFQQQVKQAIDAILCCLREKSVYKVLRVSKGGSFGRGTDLRGSCDVELVIFYKTLGDFKGQKPHQAEILRDMQAQLRHWCQNPVPGLSLQFIEQKPNALQLQLASTDLSNRVDLSVLPAFDAVGPLKSGTKPQPQVYSSLLSSGCQAGEHAACFAELRRNFINTCPPKLKSLMLLVKHWYRQVVTRYKGGEAAGDAPPPAYALELLTIFAWEQGCGEQKFSLAEGLRTILRLIQQHQSLCIYWTVNYSVQDPAIRAHLLCQLRKARPLVLDPADPTWNVGQGDWKLLAQEAAALGSQVCLQSGDGTLVPPWDVTPALLHQTLAEDLDKFISEFLQPNRHFLTQVKRAVDTICSFLKENCFRNSTIKVLKVVKGGSSAKGTALQGRSDADLVVFLSCFRQFSEQGSHRAEIISEIQAHLEACQQMHSFDVKFEVSKRKNPRVLSFTLTSQTLLDQSVDFDVLPAFDALGQLRSGSRPDPRVYTDLIHSCSNAGEFSTCFTELQRDFITSRPTKLKSLIRLVKYWYQQCNKTIKGKGSLPPQHGLELLTVYAWEQGGQNPQFNMAEGFRTVLELIVQYRQLCVYWTINYSAEDKTIGDFLKMQLRKPRPVILDPADPTGNLGHNARWDLLAKEATVYASALCCVDRDGNPIKPWPVKAAV
modifications: full-length

System: intracellular proteome of ENR+CD and ENR organoids
Assay: LC-MS/MS TMT proteomics of ENR+CD versus ENR organoids
Assay type: cell-based, C57BL/6 mice
Conditions: for Average logFC: ENR+CD versus ENR organoids, sample pairs in aggregate (n=4, 2 technical replicates from two biological donors); for M1-1 Log2 Median Normalized / M1-2 Log2 Median Normalized / M2-1 Log2 Median Normalized / M2-2 Log2 Median Normalized: protein abundance ratio ENR+CD versus ENR organoids, LC-MS/MS TMT proteomics; for M1-1 Log2 Median Normalized: sample pair M1-1; for M1-2 Log2 Median Normalized: sample pair M1-2; for M2-1 Log2 Median Normalized: sample pair M2-1; for M2-2 Log2 Median Normalized: sample pair M2-2; for change: up = enriched in ENR+CD, down = enriched in ENR, FDR<0.05 and log fold change cut-off

Row | Molecule | Average logFC | M1-1 Log2 Median Normalized | M1-2 Log2 Median Normalized | M2-1 Log2 Median Normalized | M2-2 Log2 Median Normalized | change
1 | B1 | −1.258 | −1.327 | −1.525 | −1.0345 | −1.145 | down
2 | B2 | −1.188 | −1.187 | −1.193 | −1.4105 | −0.754 | down
3 | B3 | −1.924 | −1.923 | −1.965 | −2.3285 | −1.001 | down
4 | B4 | −1.514 | −0.949 | −1.798 | −1.4995 | −1.811 | down
5 | B5 | −1.598 | −1.5 | −1.991 | −2.4445 | −0.456 | down
6 | B6 | 1.481 | 1.688 | 1.48 | 1.1495 | 1.521 | up
7 | B7 | 1.492 | 1.738 | 1.082 | 1.8435 | 1.303 | up
8 | B8 | 1.453 | 2.102 | 0.932 | 1.1705 | 1.609 | up
9 | B9 | 1.461 | 1.378 | 0.979 | 1.6325 | 1.853 | up
